The experiment concerns the target 6x-histidine-fused LOS4 (LOS4-His) (Arabidopsis) (UniProt Q93ZG7). Briefly: cell-based or functional assay.

Chain of 6x-histidine-fused LOS4 (LOS4-His) (Arabidopsis) (Q93ZG7 other isoform, or with tags, fused parts or gaps limits assumed): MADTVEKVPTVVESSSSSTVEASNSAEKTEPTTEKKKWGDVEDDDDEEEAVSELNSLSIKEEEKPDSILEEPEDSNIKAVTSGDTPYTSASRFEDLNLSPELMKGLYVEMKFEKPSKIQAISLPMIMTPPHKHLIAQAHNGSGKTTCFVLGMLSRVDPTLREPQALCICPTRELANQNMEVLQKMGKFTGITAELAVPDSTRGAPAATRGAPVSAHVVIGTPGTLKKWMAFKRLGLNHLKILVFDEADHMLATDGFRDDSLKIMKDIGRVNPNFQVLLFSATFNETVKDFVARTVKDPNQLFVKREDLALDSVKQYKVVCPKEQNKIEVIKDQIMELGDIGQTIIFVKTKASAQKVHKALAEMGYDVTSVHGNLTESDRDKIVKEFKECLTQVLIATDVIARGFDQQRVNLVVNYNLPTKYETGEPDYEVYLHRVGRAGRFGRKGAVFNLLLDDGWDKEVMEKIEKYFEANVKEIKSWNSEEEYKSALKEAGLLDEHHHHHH

Consider “MBP fusion protein of the carboxyl-terminal domain of Gle1 (MBP-Gle1C; amino acid residues 244-611) (from UniProt Q0WPZ7 244-611)”, for which the LOS4 ATPase activity with RNA (LOS4-His and MBP-Gle1C at a ratio of 1:2) stood at 3 fold.
In turn, “MBP-Gle1C (ID) (from UniProt Q0WPZ7 244-611)” had a fold decrease in LOS4-stimulating activity against MBP-Gle1C, absence of InsP6 above 2 fold.
